B1: Charged multivesicular body protein 4a (Homo sapiens), Q9BY43 (parent)
chain: MSGLGRLFGKGKKEKGPTPEEAIQKLKETEKILIKKQEFLEQKIQQELQTAKKYGTKNKRAALQALRRKKRFEQQLAQTDGTLSTLEFQREAIENATTNAEVLRTMELAAQSMKKAYQDMDIDKVDELMTDITEQQEVAQQISDAISRPMGFGDDVDEDELLEELEELEQEELAQELLNVGDKEEEPSVKLPSVPSTHLPAGPAPKVDEDEEALKQLAEWVS

Variants of: B1
Settings: with pdc6i_human PDCD6IP

Effect of a mutation on the interaction, disrupting interaction:
L217A
L214A
W220A
